Where “and” joins values, the source holds several entries; their conditions need not be identical. Equal entries are not always repeated. Values belong to the molecule of their own block, whether it stands above or below them.
T1: Dsn1 (subunit of the purified MIND complex) (S. cerevisiae, UniProt P40568 1-576)
T1 sequence (looked up): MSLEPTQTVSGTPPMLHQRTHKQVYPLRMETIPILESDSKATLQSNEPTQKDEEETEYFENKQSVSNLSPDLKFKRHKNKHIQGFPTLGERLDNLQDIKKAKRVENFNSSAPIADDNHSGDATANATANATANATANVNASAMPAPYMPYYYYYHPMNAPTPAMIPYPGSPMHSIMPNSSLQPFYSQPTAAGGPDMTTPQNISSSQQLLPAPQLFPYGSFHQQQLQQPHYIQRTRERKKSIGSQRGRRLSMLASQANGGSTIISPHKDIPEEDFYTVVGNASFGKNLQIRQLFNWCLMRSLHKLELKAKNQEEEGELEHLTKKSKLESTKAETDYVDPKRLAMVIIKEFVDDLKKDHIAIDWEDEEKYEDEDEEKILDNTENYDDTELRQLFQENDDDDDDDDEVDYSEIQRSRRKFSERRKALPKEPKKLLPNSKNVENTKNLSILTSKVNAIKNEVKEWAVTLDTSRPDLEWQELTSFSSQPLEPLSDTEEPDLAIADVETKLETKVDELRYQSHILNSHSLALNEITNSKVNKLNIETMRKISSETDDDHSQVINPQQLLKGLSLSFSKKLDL

B1: Lrs4 1-130 (domain or fragment, S. cerevisiae, UniProt Q04087 1-130, looked up)
chain: MTTLLQLLSNYYKAKLDSERIYNEYVQSQYEFASLDKLNNNKGDPKKVVDETLFLQRQIAQLNKQLQLSFQENEKLLSVQKNQKALYQSKLSSKDAFIDDLKLKLKVEQISVDKHNKERTPSTGRDEQQR
B2: Nnf1 (subunit of the purified MIND complex) (natural protein, S. cerevisiae, UniProt P47149 1-201, looked up)
chain: MVNSHGIRYIRLKQVFNRALDQSISKLQSWDKVSSCFPQYVNSKQGAINVANCQRQLTEFWTELCQREFKEIMEERNVEQKLNELDELILEAKERYTDRDQDEVNKGPAIDELSSKELVECHLYSQRMHAIHEIDERLAKVNEMNDQLAQELKDLETQVEVEKNEIGKMYDEYLGSHTDQPANVLLVQSLNDMVLELKENY
B3: Mtw1 (subunit of the purified MIND complex) (natural protein, S. cerevisiae, UniProt P39731 1-289, looked up)
chain: MSAPTMRSTSILTEHLGYPPISLVDDIINAVNEIMYKCTAAMEKYLLSKSKIGEEDYGEEIKSGVAKLESLLENSVDKNFDKLELYVLRNVLRIPEEYLDANVFRLENQKDLVIVDENELKKSEEKLREKVNDVELAFKKNEMLLKRVTKVKRLLFTIRGFKQKLNELLKCKDDVQLQKILESLKPIDDTMTLLTDSLRKLYVDSESTSSTEEVEALLQRLKTNGKQNNKDFRTRYIDIRTNNVLRKLGLLGDKEDEKQSAKPDARTQAGDIVSIDIEEPQLDLLDDVL
B4: Csm1 1-181 (domain or fragment, S. cerevisiae, UniProt P25651 1-181, looked up)
chain: MDPLTVYKNSVKQQIDSADLLVANLVNENFVLSEKLDTKATEIKQLQKQIDSLNAQVKELKTQTSQQAENSEVIKDLYEYLCNVRVHKSYEDDSGLWFDISQGTHSGGSSDDYSIMDYKLGFVKGQAQVTEVIYAPVLKQRSTEELYSLQSKLPEYLFETLSFPLSSLNQFYNKIAKSLNK
B5: Mde4 1-77 (domain or fragment)
chain: MSTISTSTDSKLDNLGLSVTSRRNQILFYLSKALNLAHLLRSDSLQKSFLDALKQSATDSELLHKNLDEIKFLQNEK
B6: Mde4 full-length (natural protein)
chain: MSTISTSTDSKLDNLGLSVTSRRNQILFYLSKALNLAHLLRSDSLQKSFLDALKQSATDSELLHKNLDEIKFLQNEKLNNEKLLEQEQNEANDYRLKVERLEHKISDYVQEINSLNSQLQIQKSNPEKHEDAVSQNRLRGSLDTVSSPSKTHKANKDEKATRLHLIIANLKKALKEKDAEVLNLQSHVSSKESELDRFKIKLETEESNWKVRLQVLESKLATQDRKLRMQKKSTERKSLLVSPRVSSPKLFSPSKQAIMGTRQPNATSGSPLSVTPFLQKTSTSIGLSSSPPQSSPSAQSSQPFSRDKYPHSMTVSPSNARYLKKHLDDTIPSNVSDINHNDHLKIPQSPSSLSPSKIPIRKKRKLKDTVSNCEFTEEDSESSFLLETIQPTKSTLRRSISPLKKRNDEINELKKGFTMKK
B7: Mde4 1-231 (domain or fragment)
chain: MSTISTSTDSKLDNLGLSVTSRRNQILFYLSKALNLAHLLRSDSLQKSFLDALKQSATDSELLHKNLDEIKFLQNEKLNNEKLLEQEQNEANDYRLKVERLEHKISDYVQEINSLNSQLQIQKSNPEKHEDAVSQNRLRGSLDTVSSPSKTHKANKDEKATRLHLIIANLKKALKEKDAEVLNLQSHVSSKESELDRFKIKLETEESNWKVRLQVLESKLATQDRKLRMQK
B8: Lrs4 1-102 (domain or fragment, S. cerevisiae, UniProt Q04087 1-102, looked up)
chain: MTTLLQLLSNYYKAKLDSERIYNEYVQSQYEFASLDKLNNNKGDPKKVVDETLFLQRQIAQLNKQLQLSFQENEKLLSVQKNQKALYQSKLSSKDAFIDDLK
B9: Mde4 1-125 (domain or fragment)
chain: MSTISTSTDSKLDNLGLSVTSRRNQILFYLSKALNLAHLLRSDSLQKSFLDALKQSATDSELLHKNLDEIKFLQNEKLNNEKLLEQEQNEANDYRLKVERLEHKISDYVQEINSLNSQLQIQKSN
B10: S. cerevisiae Csm1 full-length (natural protein, UniProt P25651 1-190, looked up)
chain: MDPLTVYKNSVKQQIDSADLLVANLVNENFVLSEKLDTKATEIKQLQKQIDSLNAQVKELKTQTSQQAENSEVIKDLYEYLCNVRVHKSYEDDSGLWFDISQGTHSGGSSDDYSIMDYKLGFVKGQAQVTEVIYAPVLKQRSTEELYSLQSKLPEYLFETLSFPLSSLNQFYNKIAKSLNKKREKKDETE
B11: Csm1 69-190 (domain or fragment, S. cerevisiae, UniProt P25651 69-190, looked up)
chain: ENSEVIKDLYEYLCNVRVHKSYEDDSGLWFDISQGTHSGGSSDDYSIMDYKLGFVKGQAQVTEVIYAPVLKQRSTEELYSLQSKLPEYLFETLSFPLSSLNQFYNKIAKSLNKKREKKDETE
B12: Lrs4 full-length (natural protein, S. cerevisiae, UniProt Q04087 1-347, looked up)
chain: MTTLLQLLSNYYKAKLDSERIYNEYVQSQYEFASLDKLNNNKGDPKKVVDETLFLQRQIAQLNKQLQLSFQENEKLLSVQKNQKALYQSKLSSKDAFIDDLKLKLKVEQISVDKHNKERTPSTGRDEQQRNSKAAHTSKPTIHLLSPIVNRDKPNNQTNDRGGNDPDSPTSQRRSRGLRSLLSSGKNTIFDSISKNLDDEINENAHIRNDTTSSKIAGKSPSRLSALQKSPELRKERNNMILKEHILRSKDDQNITSSRKLDNIELSSIGDSTAMTSRSSTVNANDILGNEENDGITKLKRVNKLTSSPVKRDCSTNKKRKLTKQRIATLPNSDEELSNNLNVDEFV

Key:
Pcs1 85-222 (S. pombe) = Pcs1 85-222 (S. pombe) (UniProt O13684); test: AUC
[1] = target: S. pombe Pcs1 full-length (S. pombe) (UniProt O13684); test: AUC
Chain of S. pombe Pcs1 full-length (S. pombe) (O13684 whole entry): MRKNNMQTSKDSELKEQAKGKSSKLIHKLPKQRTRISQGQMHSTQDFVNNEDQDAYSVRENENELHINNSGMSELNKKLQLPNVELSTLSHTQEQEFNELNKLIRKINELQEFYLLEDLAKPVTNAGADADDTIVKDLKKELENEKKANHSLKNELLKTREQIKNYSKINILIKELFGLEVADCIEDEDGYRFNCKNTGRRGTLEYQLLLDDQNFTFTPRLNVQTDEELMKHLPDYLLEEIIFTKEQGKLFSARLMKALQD

[2] = target: B10; test: AUC
[3] = target: B3; test: co-purification of a recombinant complex
[4] = target: T1, Dsn1 (subunit of the purified MIND …); test: co-purification of a recombinant complex
AUC = target: the molecule itself; test: AUC
Csm1 1-181 = target: B4; test: AUC
[5] = target: S. pombe Pcs1 full-length (S. pombe) (UniProt O13684); test: AUC; remark: listed apart in the source

stoichiometry N (Pcs1 85-222 (S. pombe)): 2
Molecule: Pcs1 85-222 (from UniProt O13684 85-222) (domain or fragment)

stoichiometry N [1]: 2
Molecule: S. pombe Pcs1 full-length (from UniProt O13684 1-261) (natural protein)

Molecule: B1
stoichiometry N [2]: 4 copies of Csm1 in the complex and 2 copies of Lrs4 in the complex

Molecule: B2
binding result [3]: binds

Molecule: B3
binding result [4]: binds

Molecule: B4
stoichiometry N (AUC): 2

Molecule: TTLLQLLSNYYKAKLDSERIYNEYVQSQY (peptide, UniProt Q04087 2-30, looked up) [peptide containing Lrs4 residues 2-30]
stoichiometry N (Csm1 1-181): 4 copies of Csm1 in the complex and 2 copies of Lrs4 in the complex

Molecule: B5
stoichiometry N (copies of Mde4 in the complex) [5]: 2
stoichiometry N (copies of Pcs1 in the complex) [5]: 4

Molecule: B6
stoichiometry N (copies of Mde4 in the complex) [5]: 2
stoichiometry N (copies of Pcs1 in the complex) [5]: 4

Molecule: B7
stoichiometry N (copies of Mde4 in the complex) [5]: 2
stoichiometry N (copies of Pcs1 in the complex) [5]: 4

Molecule: B8
stoichiometry N [2]: 4 copies of Csm1 in the complex and 2 copies of Lrs4 in the complex

Molecule: B9
stoichiometry N (copies of Mde4 in the complex) [5]: 2
stoichiometry N (copies of Pcs1 in the complex) [5]: 4

Molecule: B10
stoichiometry N (AUC): 2

Molecule: B11
stoichiometry N (AUC): 2

Molecule: B12
stoichiometry N [2]: 4 copies of Csm1 in the complex and 2 copies of Lrs4 in the complex

From PMC2955198 (Cell, 2010)
